Source: the supplement of paper PMC7877785
± gives the uncertainty stated by the source.

Test: self-splicing fitness, log relative to wild type (ln ratio); higher = more splicing; Tetrahymena group I intron in knt gene, E. coli kanamycin selection, DiMSum; sequences stand for … in CUCUCU…GGAGGGAAAAGUUAUCAGGCAUGCACCUGGUAGCUAGUCUUUAAACCAAUAGAUUGCAUCGGUUUAAAAGGCAAGACCGUCAAAUUGCGGGAAAGGGGUCAACAGCCGUUCAGUACCAAGUCUCAGGGGAAACUUUGAGAUGGCCUUGCAAAGGGUAUGGUAAUAAGCUGACGGACAUGGUCCUAACCACGCAGCCAAGUCCUAAGUCAACAGAUCUUCUGUUGAUAUGGAUGCAGUUCACAGACUAAAUGUCGGUCGGGGAAGAUGUAUUCUUCUCAUAAGAUAUAGUCGGACCUCUCCUUAAUGGGAGCUAGCGGAUGAAGUGAUGCAACACUGGAGCCGCUGGGAACUAAUUUGUAUGCGAAAGUAUAUUGAUUAGUUUUGGAGUACUCGUGGUCG
In short: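 Fitness was computed with DiMSum as the error-weighted combination of replicate fold changes, kanamycin versus none, each normalised to wild type. The library randomised all eight intron nucleotides of the P1ex region, with the intron placed in the knt kanamycin-resistance gene on pET-22b(+) in E. coli BL21(DE3). Six replicate transformations were grown overnight at 37°C or 30°C on LB agar with or without 25 μg/mL kanamycin, plus 100 μg/mL carbenicillin, 50 μM IPTG and 0.2% rhamnose. Pooled colonies were amplicon-sequenced on an Illumina HiSeq 2500.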

Sequence	self-splicing fitness (ln) (30 °C)	self-splicing fitness (ln) (37 °C)
AGCUAGCAAUAUUACGACUC	-2.01 ± 0.16	-1.24 ± 0.15
AGCUAGCAAUAUUACGAGCC	-3.51 ± 0.32	-2.5 ± 0.49
AGCUAGCAAUAUUACGAGUA	-1.65 ± 0.15	-0.618 ± 0.12
AGCUAGCAAUAUUACGAGUU	-2.58 ± 0.16	-2.45 ± 0.22
AGCUAGCAAUAUUACGAUUU	-0.0195 ± 0.06	0.214 ± 0.086
AGCUAGCAAUAUUACGCAGA	-3.4 ± 0.34	-1.82 ± 0.18
AGCUAGCAAUAUUACGCCGC	-2.36 ± 0.2	-3.06 ± 0.47
AGCUAGCAAUAUUACGCCGG	-2.94 ± 0.2	-1.85 ± 0.34
AGCUAGCAAUAUUACGCGAA	-3.09 ± 0.23	-1.24 ± 0.22
AGCUAGCAAUAUUACGCGCG	-0.92 ± 0.18	-0.121 ± 0.17
AGCUAGCAAUAUUACGCUCG	-2.6 ± 0.19	-1.53 ± 0.17
AGCUAGCAAUAUUACGGACC	-0.63 ± 0.12	-0.00494 ± 0.17
AGCUAGCAAUAUUACGGCCA	-0.689 ± 0.15	0.469 ± 0.18
AGCUAGCAAUAUUACGGCUU	-3.43 ± 0.21	-2.62 ± 0.23
AGCUAGCAAUAUUACGGGCU	-3.47 ± 0.27	-2.91 ± 0.36
AGCUAGCAAUAUUACGGGGG	-3.05 ± 0.31	-1.64 ± 0.27
AGCUAGCAAUAUUACGGUCU	-0.425 ± 0.068	0.136 ± 0.088
AGCUAGCAAUAUUACGGUGG	-2.04 ± 0.092	-2.46 ± 0.17
AGCUAGCAAUAUUACGUACU	-0.454 ± 0.095	-0.144 ± 0.12
AGCUAGCAAUAUUACGUAGU	-3.32 ± 0.12	-2.85 ± 0.14
AGCUAGCAAUAUUACGUGCU	-3.87 ± 0.35	-2.44 ± 0.23
AGCUAGCAAUAUUACGUGUU	-1.86 ± 0.14	-2.11 ± 0.14
AGCUAGCAAUAUUACGUUAC	-3.52 ± 0.27	-1.87 ± 0.18
AGCUAGCAAUAUUACGUUGG	-3.61 ± 0.19	-2.03 ± 0.18
AGGAAGCAAUAUUACGAAUC	-2.86 ± 0.25	–

Sequence	self-splicing fitness (ln) (30 °C)	self-splicing fitness (ln) (37 °C)
AGGAAGCAAUAUUACGAAUU	-2.58 ± 0.13	-1.45 ± 0.15
AGGAAGCAAUAUUACGACCG	-0.0847 ± 0.2	0.135 ± 0.23
AGGAAGCAAUAUUACGAGGA	-2.39 ± 0.29	-2.32 ± 0.22
AGGAAGCAAUAUUACGAGUC	-2.85 ± 0.35	-1.61 ± 0.27
AGGAAGCAAUAUUACGAUCG	-1.27 ± 0.16	-0.489 ± 0.16
AGGAAGCAAUAUUACGCACU	-0.845 ± 0.22	-1.35 ± 0.29
AGGAAGCAAUAUUACGCAUG	-3.2 ± 0.16	-1.31 ± 0.12
AGGAAGCAAUAUUACGCCAU	-3.16 ± 0.27	-2 ± 0.38
AGGAAGCAAUAUUACGCCCG	-0.151 ± 0.17	-0.394 ± 0.2
AGGAAGCAAUAUUACGCCGA	-1.95 ± 0.17	-0.0948 ± 0.12
AGGAAGCAAUAUUACGCGCC	-1.61 ± 0.29	-0.761 ± 0.27
AGGAAGCAAUAUUACGCUGA	-2.96 ± 0.23	-1.97 ± 0.22
AGGAAGCAAUAUUACGCUUU	-4.15 ± 0.39	-2.32 ± 0.27
AGGAAGCAAUAUUACGGAGG	-2.71 ± 0.34	-2.28 ± 0.35
AGGAAGCAAUAUUACGGCUA	-0.35 ± 0.11	0.0571 ± 0.15
AGGAAGCAAUAUUACGGGCU	-1.72 ± 0.12	-0.915 ± 0.13
AGGAAGCAAUAUUACGGGUA	-2 ± 0.24	-1.6 ± 0.21
AGGAAGCAAUAUUACGGUGG	-3.94 ± 0.22	-1.64 ± 0.28
AGGAAGCAAUAUUACGUACC	-0.353 ± 0.12	-0.748 ± 0.16
AGGAAGCAAUAUUACGUAGU	-2.73 ± 0.15	-2.63 ± 0.21
AGGAAGCAAUAUUACGUCCG	-0.623 ± 0.16	0.408 ± 0.2
AGGAAGCAAUAUUACGUCGC	-2.62 ± 0.28	-2.06 ± 0.24
AGGAAGCAAUAUUACGUGAC	-3.65 ± 0.22	-2.45 ± 0.15
AGGAAGCAAUAUUACGUGUC	-3.14 ± 0.27	-1.57 ± 0.19
AGGCAGCAAUAUUACGAAAG	-3.39 ± 0.22	-2.46 ± 0.22

Sequence	self-splicing fitness (ln) (30 °C)	self-splicing fitness (ln) (37 °C)
AGGCAGCAAUAUUACGACCU	-1.51 ± 0.14	-1.28 ± 0.17
AGGCAGCAAUAUUACGACUA	0.127 ± 0.11	-0.125 ± 0.12
AGGCAGCAAUAUUACGAGCG	-1.13 ± 0.074	0.237 ± 0.088
AGGCAGCAAUAUUACGAGGG	-2.52 ± 0.11	-2.83 ± 0.23
AGGCAGCAAUAUUACGAUUC	-1.71 ± 0.13	-0.305 ± 0.16
AGGCAGCAAUAUUACGCAUG	-2.69 ± 0.17	-0.809 ± 0.17
AGGCAGCAAUAUUACGCCCU	-2.89 ± 0.4	–
AGGCAGCAAUAUUACGCCGG	-1.09 ± 0.15	-1.66 ± 0.17
AGGCAGCAAUAUUACGCGCC	-2.4 ± 0.32	-0.401 ± 0.29
AGGCAGCAAUAUUACGGACA	-0.916 ± 0.12	-0.346 ± 0.13
AGGCAGCAAUAUUACGGCCU	-3.36 ± 0.18	-2.37 ± 0.24
AGGCAGCAAUAUUACGGGAC	-3.48 ± 0.23	-1.94 ± 0.19
AGGCAGCAAUAUUACGGUAU	-1.79 ± 0.093	-0.467 ± 0.1
AGGCAGCAAUAUUACGGUCA	-0.0713 ± 0.069	-0.148 ± 0.079
AGGCAGCAAUAUUACGUCAC	-1.74 ± 0.13	-1.25 ± 0.28
AGGCAGCAAUAUUACGUCUC	-4.52 ± 0.23	-2.03 ± 0.14
AGGCAGCAAUAUUACGUGGC	-2.88 ± 0.2	-2.58 ± 0.22
AGGCAGCAAUAUUACGUGUA	-2.19 ± 0.1	-1.09 ± 0.11
AGGCAGCAAUAUUACGUUCG	-0.642 ± 0.079	-0.181 ± 0.11
AGGGAGCAAUAUUACGAAGU	-2.4 ± 0.37	-2.14 ± 0.32
AGGGAGCAAUAUUACGACAC	–	-1.18 ± 0.29
AGGGAGCAAUAUUACGACAG	-2.9 ± 0.13	-2.62 ± 0.22
AGGGAGCAAUAUUACGACCU	-4.11 ± 0.33	-1.67 ± 0.25
AGGGAGCAAUAUUACGAGAG	-3.23 ± 0.4	-3.84 ± 0.46
AGGGAGCAAUAUUACGAGUC	-2.9 ± 0.3	–

Sequence	self-splicing fitness (ln) (30 °C)	self-splicing fitness (ln) (37 °C)
AGGGAGCAAUAUUACGAUUU	-2.26 ± 0.18	-1.92 ± 0.29
AGGGAGCAAUAUUACGCAAG	–	-1.54 ± 0.3
AGGGAGCAAUAUUACGCCAU	-3.13 ± 0.43	–
AGGGAGCAAUAUUACGCCUA	-1.43 ± 0.26	-1.68 ± 0.21
AGGGAGCAAUAUUACGCGCU	-2.13 ± 0.23	-0.719 ± 0.39
AGGGAGCAAUAUUACGCGUU	–	-2.46 ± 0.44
AGGGAGCAAUAUUACGGUAA	–	-2.46 ± 0.44
AGGGAGCAAUAUUACGGUUA	-2.53 ± 0.17	-2.98 ± 0.28
AGGGAGCAAUAUUACGGUUC	–	-1.7 ± 0.42
AGGGAGCAAUAUUACGUAAA	-3.55 ± 0.31	-2.73 ± 0.44
AGGUAGCAAUAUUACGAAUA	-2.28 ± 0.026	-1.51 ± 0.037
AGGUAGCAAUAUUACGACGU	0.156 ± 0.014	0.233 ± 0.033
AGGUAGCAAUAUUACGAGCU	-0.0909 ± 0.015	-0.123 ± 0.034
AGGUAGCAAUAUUACGAGUC	-3.864 ± 0.037	-2.49 ± 0.043
AGGUAGCAAUAUUACGAUGA	-0.948 ± 0.016	-0.562 ± 0.034
AGGUAGCAAUAUUACGCCCC	-1.92 ± 0.044	-1.56 ± 0.063
AGGUAGCAAUAUUACGCUCC	-3.31 ± 0.052	-2.43 ± 0.064
AGGUAGCAAUAUUACGCUGG	-3.816 ± 0.035	-2.83 ± 0.046
AGGUAGCAAUAUUACGGAGG	-4.103 ± 0.034	-3.11 ± 0.043
AGGUAGCAAUAUUACGGCCC	-2.77 ± 0.044	-1.91 ± 0.058
AGGUAGCAAUAUUACGGCGU	-0.0406 ± 0.013	0.231 ± 0.033
AGGUAGCAAUAUUACGGGAG	-3.83 ± 0.03	-2.39 ± 0.038
AGGUAGCAAUAUUACGGUCG	-0.351 ± 0.014	-0.0478 ± 0.034
